In PMC5472775:

Experiments:
[1] = biological target: CENP-C-CD R522A R522A (Homo sapiens) (UniProt Q03188); assay: EMSA; settings: apparent Kd; 200 nM nucleosome; EMSA: 200 nM nucleosomes, 20 mM Tris-Cl pH 7.5, 1 mM EDTA, 1 mM DTT, on ice 1 h, 5% native PAGE; footprinting at room temperature, 5 min
[2] = biological target: CENP-C-CD R521A R521A (Homo sapiens) (UniProt Q03188); assay: EMSA; settings: apparent Kd; 200 nM nucleosome; EMSA: 200 nM nucleosomes, 20 mM Tris-Cl pH 7.5, 1 mM EDTA, 1 mM DTT, on ice 1 h, 5% native PAGE; footprinting at room temperature, 5 min

Work on “ATCAAATATCCACCTGCAGATTCTACCAAAAGTGTATTTGGAAACTGCTCCATCAAAAGGCATGTTCAGCTCTGTGAGTGAAACTCCATCATCACAAAGAATATTCTGAGAATGCTTCCGTTTGCCTTTTATATGAACTTCCTCGAT (double strand) [CENP-A NCP, Cy5-H2B, 147 bp DNA]” yielded a Kd [1] of 655 nM and a Kd [2] of 267 nM.
